Source: paper PMC3812978 (The Journal of Cell Biology, 2013)

Target: the molecule itself
Experiment: AUC

B1: nontagged Atg38 (recombinant) (natural protein, budding yeast, UniProt Q05789 1-226, looked up)
chain: MSTLAEVYTIIEDAEQECRKGDFTNAKAKYQEAIEVLGPQNENLSQNKLSSDVTQAIDLLKQDITAKIQELELLIEKQSSEENNIGMVNNNMLIGSVILNNKSPINGISNARNWDNPAYQDTLSPINDPLLMSILNRLQFNLNNDIQLKTEGGKNSKNSEMKINLRLEQFKKELVLYEQKKFKEYGMKIDEITKENKKLANEIGRLRERWDSLVESAKQRRDKQKN
stoichiometry N: 2
